Laboratory results reported in patent US20260207707A1 (UNIVERSITY OF CHICAGO, published 2026).

T1: neutrophil elastase (ELANE) (human, UniProt P08246 30-247, limits assumed)
T1 construct: Purified ELANE; In the co-immunoprecipitation it is the native protein in human PMN media; also called human ELANE
T1 sequence (looked up): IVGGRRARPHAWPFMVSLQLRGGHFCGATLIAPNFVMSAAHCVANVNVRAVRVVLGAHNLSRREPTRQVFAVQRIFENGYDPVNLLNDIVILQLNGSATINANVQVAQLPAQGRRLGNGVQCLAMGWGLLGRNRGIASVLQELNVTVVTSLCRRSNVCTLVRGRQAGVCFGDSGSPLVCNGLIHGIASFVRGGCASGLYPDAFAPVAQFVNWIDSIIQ

T2: eosinophil cationic protein (ECP), P12724
T2 chain: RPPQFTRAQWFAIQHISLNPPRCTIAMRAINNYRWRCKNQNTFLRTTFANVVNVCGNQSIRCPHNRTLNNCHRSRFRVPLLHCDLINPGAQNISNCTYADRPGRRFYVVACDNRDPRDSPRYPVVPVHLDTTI

T3: recombinant human C-terminal CD95 (aa 212-335)
T3 chain: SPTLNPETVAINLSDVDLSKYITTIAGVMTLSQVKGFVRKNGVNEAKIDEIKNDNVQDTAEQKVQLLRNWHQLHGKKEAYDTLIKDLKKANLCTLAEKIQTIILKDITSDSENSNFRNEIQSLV

T4: recombinant human N-terminal CD95 (aa 1-173)
T4 chain: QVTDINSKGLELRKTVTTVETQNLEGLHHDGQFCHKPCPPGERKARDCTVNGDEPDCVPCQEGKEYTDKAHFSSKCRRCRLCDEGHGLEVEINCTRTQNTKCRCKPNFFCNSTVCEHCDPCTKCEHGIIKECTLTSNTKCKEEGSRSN


How the values were obtained:
[1] = biological target: T1, neutrophil elastase (ELANE); test: enzyme kinetics: ELANE (10 nM) chromogenic substrate activity with ECP 0-180 nM, curve fitting
Method: Catalytic activity was measured using the chromogenic substrate N-Methoxysuccinyl-Ala-Ala-Pro-Val p-nitroanilide (Sigma, 100 μg/mL) according to manufacturer's protocol. Absorbance was measured at 405 nm using an accuSkan GO UV/Vis microplate spectrophotometer (ThermoFisher Scientific). […] Residual PMSF was eliminated with a PD-10 desalting column (GE Healthcare Life).

[2] = biological target: T2, eosinophil cationic protein (ECP), …
[3] = biological target: recombinant peptide corresponding to aa 214-231 of human CD95
[4] = biological target: T3, recombinant human C-terminal CD95 (aa …)
[5] = biological target: recombinant peptide corresponding to aa 317-335 of human CD95
[6] = biological target: T4, recombinant human N-terminal CD95 (aa …)

| Kd [1] [nM] | Binder | catalytic turnover (kcat) of ELANE [2] | cleavage of peptide monitored by mass spectrometry [3] | cleavage of recombinant protein (SDS-PAGE, Coomassie blue) [4] | cleavage of peptide monitored by mass spectrometry [5] | cleavage of recombinant protein (SDS-PAGE, Coomassie blue) [6] |
| --- | --- | --- | --- | --- | --- | --- |
| 17 | eosinophil cationic protein (ECP) (other, human, UniProt P12724 28-160, looked up, Identified by proteomics in media conditioned by human PMNs) RPPQFTRAQWFAIQHISLNPPRCTIAMRAINNYRWRCKNQNTFLRTTFANVVNVCGNQSIRCPHNRTLNNCHRSRFRVPLLHCDLINPGAQNISNCTYADRPGRRFYVVACDNRDPRDSPRYPVVPVHLDTTI | – | – | – | – | – |
| – | neutrophil elastase (ELANE) (protein) IVGGRRARPHAWPFMVSLQLRGGHFCGATLIAPNFVMSAAHCVANVNVRAVRVVLGAHNLSRREPTRQVFAVQRIFENGYDPVNLLNDIVILQLNGSATINANVQVAQLPAQGRRLGNGVQCLAMGWGLLGRNRGIASVLQELNVTVVTSLCRRSNVCTLVRGRQAGVCFGDSGSPLVCNGLIHGIASFVRGGCASGLYPDAFAPVAQFVNWIDSIIQ | increases its catalytic turnover (kcat) by ~12-fold | studies with synthetic peptides validated these findings | ELANE preferentially cleaved the C-terminal domain | studies with synthetic peptides validated these findings | ELANE preferentially cleaved the C-terminal domain |
